What was measured:
[1] = check for precipitates by centrifugation; format: physicochemical; details: 25° C., 0-232 hours
Procedure: The stability of ORP100S without the red fraction was evaluated at room temperature (25° C.) by SEC analysis as described in the preceding Examples. Protein solutions were prepared in PBS (saline) at concentrations of 70, 80, 90, 100 and 110 mg/ml corresponding to 6.0, 6.8, 7.7, 8.5 and 9.4 mM. These were incubated at room temperature for 0, 20, 44, 68, 140, 188 and 232 hours. At each time point tubes were centrifuged at 1000 RFC to check for precipitates and percent monomeric ORP100S determined by SEC. Additionally, at the 68 hr time point DTNB assays were performed to evaluate the degree of reduction.

[2] = DTNB assay of reduction state (free SH groups); format: physicochemical; details: for % reduced (68 hrs): 25° C., red fraction removed
Procedure: Functional assays 1. Reduction state of ORP100S was quantified using DTNB which reacts with free SH groups resulting in a yellow color change at 412 nm. Fifty microliters of 2.5 mM rhTrx was added to a 96-well plate, followed by 175 microliters of sample buffer and 25 microliters of 6 mM DTNB. After reactions were initiated by the addition of DTNB, change in kinetic absorbance at 412 nm due to DTNB reduction was monitored spectrophotometrically at 30° C. ORP100S concentration was determined by A280 (Nanodrop) using the extinction coefficient of human Trx-1 (7,000). The actual concentrations of free sulfhydryl groups were calculated based on the absorbance at 412 nm and the extinction coefficient of DTNB (14,150) in order to determine the reduction state as percentage of free sulfhydryl. […] 2. Percent of free monomer ORP100S in solution was determined using SEC. Samples were analyzed on a BioBasic S-300 250×4.6 column (Thermo Scientific) run on an Agilent 1100 HPLC system. The SEC-HPLC mobile phase buffer consisted of 40 mM ammonium acetate (pH 5.5), 2 mM EDTA and 450 mM NaCl. Low pH minimized dimerization while the 450 mM NaCl concentration improved resolution. The flow rate was 0.35 mL/min and absorbance was monitored at 280 nm. The length of each run was 20 minutes. The ORP100S monomer percentage was determined by integration of the area under the peak of the monomeric fraction divided by the total area under the curve of the chromatogram. 3. Disulfide bond reduction activity of ORP100S was quantified by assaying the reduction state of a small protein (human insulin) which in its heterodimeric form contains two intermolecular and one intramolecular disulfide, all three of which are known to be suitable thioredoxin substrates. Insulin reduction has classically been used to quantify thioredoxin activity by absorbance change following addition of NADPH and TrxR (Holmgren A., 1979, Thioredoxin catalyzes the reduction of insulin disulfides by dithiothreitol and dihydrolipoamide, J Biol Chem 254:9627-32). Such an approach is not suitable for monothiol C35S thioredoxins ORP-100 and ORP100S due to 1) the lack of cycling resulting from stoichiometric covalent linkage to the disulfide bond substrate and 2) the inability of NADPH and TrxR to reduce Cys32 of the oxidized monothiol Trx active site. Consequently, a new assay was developed based on the use of reverse-phase (RP) HPLC to monitor the rate of conversion of disulfide-bonded insulin heterodimers to monomeric forms. The two chains of human insulin have a total of six Cys residues which form three disulfide bonds in its mature structure. When ORP100S in the reduced form is incubated with dimeric insulin it reacts with these disulfide bonds to disrupt them, simultaneously forming covalent linkages to the ORP100S Cys32. […] The ORP100S samples were incubated with 10 mg/mL insulin for various time points (0-90 min) and the reactions were stopped by addition of iodacetic acid (IA) and trifluoroacetic acid (TFA). Relative activity at each time point was determined from changes in the area under the insulin heterodimer peak following separation over RP-HPLC (Agilent 1100) using an Intrada WP-RP 50×3 (Imtakt) column. Buffer A was 0.1% TFA and Buffer B was 0.1% TFA in acetonitrile. The gradient was […] in 5 min followed by 30 to 60% B in 45 min, then 60 to 80% B for an additional 5 min. The flow rate was 0.2 mL/min and absorbance was measured at 280 nm. In order to evaluate the change in the intact insulin molecule a time 0 baseline was first established using 1 M IA and 0.1% TFA without the addition of ORP100S. The area under the intact insulin heterodimer peak was then determined and set as equivalent to 100%. After the reaction with ORP100S the area of the intact insulin peak (corresponding to retention time) was measured. The percent reduction in intact insulin was then calculated from the decrease in the area following reduction divided by the area at time 0 multiplied by 100.

Sprague-Dawley rats = assay: nebulized aerosol inhalation in rats, inflammatory potential and toxicity; format: in vivo, rat
Procedure: This example evaluated and compared the in vivo inflammatory potential among three forms of C35S monothiol Trx (oxidized ORP-100, reduced ORP-100, and reduced ORP100S) formulated in the sucrose/EDTA formulation composition described in PCT WO 2006/090127 and delivered to normal rats as nebulized aerosols at doses of […] and 40 mg/kg.
All three forms of ORP-100 were lyophilized following reduction with DTT and formulated in sucrose buffer (9% sucrose 1.17 mM EDTA pH 5.2). All test articles were evaluated at low (10 mg/kg) and high (40 mg/kg) target delivered doses. The test articles were administered to Charles River Sprague-Dawley rats via inhalation as an aerosol. The aerosol of each of the test articles was produced by a commercially available vibrating mesh nebulizer whose output was attached to a nose-only exposure system.
Target doses were achieved via modulation of the aerosol exposure time while maintaining the aerosol concentration constant. Animals in Low Dose groups received a single dose of test article during a 20 minute exposure to achieve a target delivered dose of 10 mg/kg and deposited dose of 1 mg/kg. Animals in High Dose groups received a single dose of test article during a 75 minute exposure to achieve a target delivered dose of 40 mg/kg and target deposited dose of 4 mg/kg.
Animals in each study group were evaluated for potential toxicity by measuring various parameters including: clinical signs, body weight, clinical pathology (BALF cell counts, LDH and albumin measurements), lung tissue cytokines, lung weights, gross pathology, and microscopic pathology of respiratory target tissues. Additionally, three animals in each Low Dose group had lung tissues collected for immunohistochemistry (Alizèe Pathology, Thurmont, M D). Three (3) animals in each Low Dose group were to be euthanized at 1 hour and 4 hours post exposure for blood and tissue collections. Four (4) animals in each High Dose group were euthanized at 4 and 20 hours post exposure for blood and tissue collections.

B1: ORP100S: thioredoxin with monothiol active site, Cys35 and non-active Cys 62, 69 and 73 substituted with serine (SEQ ID NO:29) (protein)
chain: MVKQIESKTAFQEALDAAGDKLVVVDFSATWCGPSKMIKPFFHSLSEKYSNVIFLEVDVDDSQDVASESEVKSMPTFQFFKKGQKVGEFSGANKEKLEATINELV
modifications: synthetic peptide motif
- Precipitate (all time points) ([1]; 70 mg/mL in PBS): None
- Precipitate (all time points) ([1]; 80 mg/mL in PBS): None
- Precipitate (all time points) ([1]; 90 mg/mL in PBS): None
- Precipitate (all time points) ([1]; 100 mg/mL in PBS): None
- Precipitate (all time points) ([1]; 110 mg/mL in PBS): None
- % reduced (68 hrs) ([2]; 70 mg/mL in PBS): 109%
- % reduced (68 hrs) ([2]; 80 mg/mL in PBS): 87%
- % reduced (68 hrs) ([2]; 90 mg/mL in PBS): 91%
- % reduced (68 hrs) ([2]; 100 mg/mL in PBS): 91%
- % reduced (68 hrs) ([2]; 110 mg/mL in PBS): 102%
- DTNB % reduced ([2]; Ox:Red 0:100 mixture): 86%
- DTNB % reduced ([2]; Ox:Red 25:75 mixture): 73%
- DTNB % reduced ([2]; Ox:Red 50:50 mixture): 55%
- DTNB % reduced ([2]; Ox:Red 75:25 mixture): 49%
- DTNB % reduced ([2]; Ox:Red 100:0 mixture): 22%
- differences in BALF LDH, albumin, cell counts, differential counts and lung tissue cytokines vs. oxidized ORP-100 control groups (Sprague-Dawley rats; low and high dose aerosol): unremarkable
- neutrophil influx (sucrose/EDTA formulation effect) (Sprague-Dawley rats; sucrose/EDTA formulation, nebulized aerosol): abrogated neutrophil influx almost completely
- adverse test article effects (clinical observations, BALF chemistry, cell count, differential, lung cytokines, macroscopic and microscopic findings) (Sprague-Dawley rats; target delivered doses 10 mg/kg and 40 mg/kg, aerosol, 1, 4 or 20 hours post exposure): no evidence of adverse test article effects

Source: patent US20230071765A1, “COMPOSITIONS HAVING THIOREDOXIN ACTIVITY AND RELATED METHODS” (ORPRO THERAPEUTICS, INC., priority 2020, published 2023)
